Reference: patent US8242083B2, “Kinase substrates” (PerkinElmer Health Sciences, Inc., priority 2008, dated 2012)

Assays:
Type in all cases: biochemical
BTK = BTK (Homo sapiens, UniProt Q06187); assay: TR-FRET kinase assay, BTK; conditions: Kinase Concentration 0.25 nM; 50 nM ULight-labeled substrate, 200 micromolar ATP, 2 hours
Procedure: (§1) TR-FRET kinase assays are performed under standardized conditions: various individual kinases are incubated with 50 nM of kinase substrate BRB1 labeled with the TR-FRET acceptor dye ULight (PerkinElmer) and 200 micromolar ATP in 10 μL of kinase assay buffer (50 mM HEPES pH7.5, 10 mM MgCl2, 3 mM MnCl2, 1 mM EGTA, 2 mM DTT and 0.01% Tween-20) for 2 hours at room temperature. Reactions are stopped with EDTA, and anti-phospho-tyrosine antibodies (clone PT66) labeled with the TR-FRET europium chelate donor dye are added to a final concentration of 2 nM in a final volume of 20 μL. The TR-FRET signal emitted at 665 nm is read one hour after the addition of antibodies using a TR-FRET plate reader such as the Envision® Multilabel Plate reader (PerkinElmer). The emitted signal at 665 nm is proportional to the extent of peptide phosphorylation, Control reactions indicative of background are performed excluding ATP from the reaction.
(§2) Assay conditions are identical to those used described for FIG. 1.

RON = RON (Homo sapiens, UniProt Q04912); assay: TR-FRET kinase assay, RON; conditions: Kinase Concentration 0.25 nM; 50 nM ULight-labeled substrate, 200 micromolar ATP, 2 hours
Procedure: as §1, §2

PYK2 = PYK2 (Homo sapiens, UniProt Q14289); assay: TR-FRET kinase assay, PYK2; conditions: Kinase Concentration 0.25 nM; 50 nM ULight-labeled substrate, 200 micromolar ATP, 2 hours
Procedure: as §1, §2

PDGFRa = PDGFRa (Homo sapiens, UniProt P16234); assay: TR-FRET kinase assay, PDGFRa; conditions: Kinase Concentration 0.5 nM; 50 nM ULight-labeled substrate, 200 micromolar ATP, 2 hours
Procedure: as §1, §2

ABL [T315I] (ABL1) = ABL [T315I] (ABL1) (Homo sapiens, UniProt P00519, T315I); assay: TR-FRET kinase assay, ABL [T315I]; conditions: Kinase Concentration 0.5 nM; 50 nM ULight-labeled substrate, 200 micromolar ATP, 2 hours
Procedure: as §1, §2

EphB3 = target: T1, EphB3 (Homo sapiens, UniProt P54753); assay: TR-FRET kinase assay, EphB3; conditions: Kinase Concentration 0.1 nM; 50 nM ULight-labeled substrate, 200 micromolar ATP, 2 hours
T1 sequence (P54753 34-998): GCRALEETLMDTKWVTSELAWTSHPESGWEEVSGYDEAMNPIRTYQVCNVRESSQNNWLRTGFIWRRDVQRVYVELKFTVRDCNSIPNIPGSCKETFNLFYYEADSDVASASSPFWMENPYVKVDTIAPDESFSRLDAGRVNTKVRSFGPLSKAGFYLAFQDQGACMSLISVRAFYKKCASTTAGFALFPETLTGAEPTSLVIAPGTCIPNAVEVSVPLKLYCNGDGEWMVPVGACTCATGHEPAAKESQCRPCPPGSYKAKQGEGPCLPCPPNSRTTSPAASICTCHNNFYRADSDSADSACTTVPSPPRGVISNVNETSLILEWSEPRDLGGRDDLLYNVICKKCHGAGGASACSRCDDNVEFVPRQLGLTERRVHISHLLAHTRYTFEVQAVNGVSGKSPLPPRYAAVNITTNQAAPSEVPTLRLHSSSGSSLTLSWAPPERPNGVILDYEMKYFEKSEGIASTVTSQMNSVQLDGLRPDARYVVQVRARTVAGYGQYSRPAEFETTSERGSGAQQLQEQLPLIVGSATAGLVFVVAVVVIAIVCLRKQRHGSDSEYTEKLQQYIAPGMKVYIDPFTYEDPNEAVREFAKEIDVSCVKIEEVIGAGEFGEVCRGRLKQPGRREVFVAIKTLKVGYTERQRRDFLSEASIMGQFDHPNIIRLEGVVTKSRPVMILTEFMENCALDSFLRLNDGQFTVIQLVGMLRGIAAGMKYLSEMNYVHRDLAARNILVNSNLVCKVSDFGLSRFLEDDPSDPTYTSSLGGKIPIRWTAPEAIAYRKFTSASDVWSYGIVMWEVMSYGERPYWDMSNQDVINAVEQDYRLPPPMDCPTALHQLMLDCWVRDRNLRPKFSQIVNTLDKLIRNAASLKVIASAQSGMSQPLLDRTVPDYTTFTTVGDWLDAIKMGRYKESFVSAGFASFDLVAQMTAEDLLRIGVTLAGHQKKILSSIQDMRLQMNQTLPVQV
Procedure: as §1, §2

ZAP70 = target: T2, ZAP70 (Homo sapiens, UniProt P43403); assay: TR-FRET kinase assay, ZAP70; conditions: Kinase Concentration 4 nM; 50 nM ULight-labeled substrate, 200 micromolar ATP, 2 hours
T2 sequence (P43403 1-619): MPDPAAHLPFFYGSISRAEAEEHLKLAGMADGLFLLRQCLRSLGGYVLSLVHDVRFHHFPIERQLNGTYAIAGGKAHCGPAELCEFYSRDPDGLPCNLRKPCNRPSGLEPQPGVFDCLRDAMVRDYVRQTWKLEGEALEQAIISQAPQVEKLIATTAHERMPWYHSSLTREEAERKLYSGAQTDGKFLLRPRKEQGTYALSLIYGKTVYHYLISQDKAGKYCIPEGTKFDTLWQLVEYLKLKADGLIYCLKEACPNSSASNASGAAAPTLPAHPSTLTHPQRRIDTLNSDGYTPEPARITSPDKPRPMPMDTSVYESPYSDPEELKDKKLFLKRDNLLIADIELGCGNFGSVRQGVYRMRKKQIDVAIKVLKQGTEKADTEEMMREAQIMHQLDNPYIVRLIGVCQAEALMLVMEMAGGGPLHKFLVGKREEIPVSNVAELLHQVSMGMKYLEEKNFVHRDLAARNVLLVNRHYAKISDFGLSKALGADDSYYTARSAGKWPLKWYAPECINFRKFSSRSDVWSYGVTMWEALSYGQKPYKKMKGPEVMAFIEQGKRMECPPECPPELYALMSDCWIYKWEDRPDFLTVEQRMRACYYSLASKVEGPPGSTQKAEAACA
Procedure: as §1, §2

LCK = LCK (Homo sapiens, UniProt P06239); assay: TR-FRET kinase assay, LCK; conditions: Kinase Concentration 0.5 nM; 50 nM ULight-labeled substrate, 200 micromolar ATP, 2 hours
Procedure: as §1, §2

Chain of LCK (P06239 whole entry, species assumed): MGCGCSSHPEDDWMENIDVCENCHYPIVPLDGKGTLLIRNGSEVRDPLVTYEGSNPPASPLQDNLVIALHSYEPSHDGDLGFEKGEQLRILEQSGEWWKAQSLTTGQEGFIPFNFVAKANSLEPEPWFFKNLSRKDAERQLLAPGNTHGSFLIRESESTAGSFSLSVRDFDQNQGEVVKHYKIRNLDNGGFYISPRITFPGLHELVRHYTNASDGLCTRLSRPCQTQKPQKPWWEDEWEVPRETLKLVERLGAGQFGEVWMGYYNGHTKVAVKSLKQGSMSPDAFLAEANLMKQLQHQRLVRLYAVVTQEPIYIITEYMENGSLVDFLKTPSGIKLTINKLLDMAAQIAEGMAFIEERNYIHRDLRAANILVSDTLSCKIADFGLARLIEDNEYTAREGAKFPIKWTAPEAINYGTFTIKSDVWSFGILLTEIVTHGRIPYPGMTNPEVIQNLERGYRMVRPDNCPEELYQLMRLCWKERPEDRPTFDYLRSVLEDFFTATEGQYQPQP
Chain of PDGFRa (P16234 24-1089, species assumed): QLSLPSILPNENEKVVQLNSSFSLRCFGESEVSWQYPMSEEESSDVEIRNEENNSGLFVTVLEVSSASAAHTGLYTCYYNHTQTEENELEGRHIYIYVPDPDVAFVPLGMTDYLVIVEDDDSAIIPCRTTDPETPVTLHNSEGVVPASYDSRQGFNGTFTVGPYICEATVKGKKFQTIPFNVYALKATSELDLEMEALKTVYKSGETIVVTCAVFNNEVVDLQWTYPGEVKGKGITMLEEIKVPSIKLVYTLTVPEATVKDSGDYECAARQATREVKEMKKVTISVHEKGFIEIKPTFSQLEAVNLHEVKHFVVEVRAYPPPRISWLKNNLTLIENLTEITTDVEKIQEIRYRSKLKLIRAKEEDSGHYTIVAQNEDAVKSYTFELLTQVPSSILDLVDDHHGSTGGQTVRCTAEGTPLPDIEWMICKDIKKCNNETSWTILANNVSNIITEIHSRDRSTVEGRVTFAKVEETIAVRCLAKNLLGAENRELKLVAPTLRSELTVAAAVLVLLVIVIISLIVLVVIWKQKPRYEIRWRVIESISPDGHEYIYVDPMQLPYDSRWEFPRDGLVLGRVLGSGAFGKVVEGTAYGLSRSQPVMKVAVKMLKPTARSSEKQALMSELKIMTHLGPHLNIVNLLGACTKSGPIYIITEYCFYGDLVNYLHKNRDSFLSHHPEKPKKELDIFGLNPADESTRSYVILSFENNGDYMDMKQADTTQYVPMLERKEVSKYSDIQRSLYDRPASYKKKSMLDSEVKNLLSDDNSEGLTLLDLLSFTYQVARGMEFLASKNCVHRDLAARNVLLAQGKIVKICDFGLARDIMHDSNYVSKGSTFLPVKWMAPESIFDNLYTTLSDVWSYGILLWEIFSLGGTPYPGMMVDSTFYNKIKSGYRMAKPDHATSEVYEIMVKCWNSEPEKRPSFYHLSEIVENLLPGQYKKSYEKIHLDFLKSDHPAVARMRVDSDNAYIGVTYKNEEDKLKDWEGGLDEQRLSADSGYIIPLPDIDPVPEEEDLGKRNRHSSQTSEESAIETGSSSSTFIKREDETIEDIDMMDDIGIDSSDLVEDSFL
Chain of BTK (Q06187 whole entry, species assumed): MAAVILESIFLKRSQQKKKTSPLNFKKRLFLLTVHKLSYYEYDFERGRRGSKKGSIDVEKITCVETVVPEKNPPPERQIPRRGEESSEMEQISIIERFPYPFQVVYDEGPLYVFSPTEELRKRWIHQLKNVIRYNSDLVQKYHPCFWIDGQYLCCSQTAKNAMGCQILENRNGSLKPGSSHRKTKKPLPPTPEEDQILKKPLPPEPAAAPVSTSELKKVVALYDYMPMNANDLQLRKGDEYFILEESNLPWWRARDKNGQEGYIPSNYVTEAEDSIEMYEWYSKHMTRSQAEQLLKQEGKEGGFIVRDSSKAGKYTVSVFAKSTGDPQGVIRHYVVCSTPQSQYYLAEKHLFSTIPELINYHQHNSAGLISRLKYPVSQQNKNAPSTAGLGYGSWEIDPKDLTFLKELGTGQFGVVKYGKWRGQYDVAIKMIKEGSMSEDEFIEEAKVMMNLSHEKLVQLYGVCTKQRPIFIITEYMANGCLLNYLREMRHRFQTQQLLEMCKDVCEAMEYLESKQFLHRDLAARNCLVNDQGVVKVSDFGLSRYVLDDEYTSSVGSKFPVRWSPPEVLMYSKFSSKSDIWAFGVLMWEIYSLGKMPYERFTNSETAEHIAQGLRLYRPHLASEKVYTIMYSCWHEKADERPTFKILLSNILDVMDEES
Chain of PYK2 (Q14289 whole entry, species assumed): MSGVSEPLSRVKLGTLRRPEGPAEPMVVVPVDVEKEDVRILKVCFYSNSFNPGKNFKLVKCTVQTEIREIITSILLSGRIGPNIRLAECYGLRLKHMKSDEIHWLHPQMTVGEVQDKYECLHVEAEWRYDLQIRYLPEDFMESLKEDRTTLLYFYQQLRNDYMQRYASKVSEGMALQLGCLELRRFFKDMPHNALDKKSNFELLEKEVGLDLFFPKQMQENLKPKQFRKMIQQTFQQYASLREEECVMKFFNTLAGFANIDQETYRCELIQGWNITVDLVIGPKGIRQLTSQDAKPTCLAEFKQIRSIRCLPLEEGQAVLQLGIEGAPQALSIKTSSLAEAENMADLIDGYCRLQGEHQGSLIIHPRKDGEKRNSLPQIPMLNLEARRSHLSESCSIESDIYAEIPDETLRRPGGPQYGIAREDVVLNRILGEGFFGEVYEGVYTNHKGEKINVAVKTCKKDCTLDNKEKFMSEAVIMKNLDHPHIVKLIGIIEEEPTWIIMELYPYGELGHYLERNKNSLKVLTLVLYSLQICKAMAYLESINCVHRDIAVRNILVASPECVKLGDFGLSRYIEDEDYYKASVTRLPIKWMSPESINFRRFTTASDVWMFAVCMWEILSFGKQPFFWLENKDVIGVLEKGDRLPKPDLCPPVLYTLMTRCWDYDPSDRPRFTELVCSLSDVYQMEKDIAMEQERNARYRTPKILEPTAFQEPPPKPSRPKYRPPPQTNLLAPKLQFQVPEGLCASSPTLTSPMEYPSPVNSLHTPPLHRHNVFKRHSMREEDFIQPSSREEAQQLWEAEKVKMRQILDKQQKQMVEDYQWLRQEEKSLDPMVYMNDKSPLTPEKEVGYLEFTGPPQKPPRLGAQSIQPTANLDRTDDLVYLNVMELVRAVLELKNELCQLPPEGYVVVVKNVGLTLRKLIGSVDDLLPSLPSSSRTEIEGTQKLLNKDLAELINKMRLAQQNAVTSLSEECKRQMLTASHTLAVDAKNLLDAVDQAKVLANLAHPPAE

C AYE AYE AYE K EYA EYA EYA K AYA EYE R (CAYEAYEAYEKEYAEYAEYAKAYAEYER; tyrosine kinase substrate peptide) [BRB1]
Signal to Noise ratio with BRB1 Peptide (BTK): 6.8
Signal to Noise ratio with BRB1 Peptide (RON): 3.5
Signal to Noise ratio with BRB1 Peptide (PYK2): 2.9
Signal to Noise ratio with BRB1 Peptide (PDGFRa): 8.0
Signal to Noise ratio with BRB1 Peptide (ABL [T315I] (ABL1)): 4.8
Signal to Noise ratio with BRB1 Peptide (EphB3): 24.7
Signal to Noise ratio with BRB1 Peptide (ZAP70): 7.6
Signal to Noise ratio with BRB1 Peptide (LCK): 12.3
